Measurements from US20230399394A1 (SUNSHINE GUOJIAN PHARMACEUTICAL SHANGHAI, published 2023).
Substitutions are numbered along the chain they refer to.

Tests used:
[1] = target: T1, Pep2 (human, N-terminal biotin); assay: ELISA, biotinylated peptide on streptavidin plate
T1 construct: Synthetic 20-mer of human IL-33
T1 peptide: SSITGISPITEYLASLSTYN
Experimental: (§1) To determine the binding activity of antibody to each polypeptide fragment, the ELISA plate was pre-coated by biotin-avidin (SA) which was diluted in coating solution (50 mM carbonate coating buffer, pH 9.6) to 2 μg/ml at 4° C. overnight. The plate was washed with PBST for 3 times, and then blocked with 2% BSA prepared in PBS at room temperature for 2 h with 200 μL/well. The plate was washed once with PBST, and 864F3 and 874F7 with final concentrations of 10 μg/mL were added at 100 μL/well, respectively, and the plate was incubated at room temperature for 1 h. The plate was washed with PBST for 3 times, and the goat anti-mouse IgG labeled by HRP was added and placed at 37° C. for 30 min. After washing the plate with PBST for 3 times, the plate was patted on the absorbent paper to remove residual droplets as far as possible. 100 μl TMB developing solution was added to each well, and the plate was placed at room temperature (20±5° C.) for 5 minutes away from light; 50 μl 2M H₂SO₄ terminating solution was added to each well to terminate the substrate reaction. OD values were read at 450 nm on the microplate reader to analyze the binding ability of the antibody to each polypeptide fragment. The experimental results are shown in […]

[2] = target: T2, Pep3 (human, N-terminal biotin); assay: ELISA, biotinylated peptide on streptavidin plate
T2 construct: Synthetic 20-mer of human IL-33
T2 peptide: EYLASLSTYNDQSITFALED
Experimental: as §1

[3] = target: T3, Pep4 (human, N-terminal biotin); assay: ELISA, biotinylated peptide on streptavidin plate
T3 construct: Synthetic 20-mer of human IL-33
T3 peptide: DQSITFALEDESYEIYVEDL
Experimental: as §1

[4] = target: T4, Pep8 (human, N-terminal biotin); assay: ELISA, biotinylated peptide on streptavidin plate
T4 construct: Synthetic 20-mer of human IL-33
T4 peptide: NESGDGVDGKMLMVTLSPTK
Experimental: as §1

[5] = target: T5, Pep9 (human, N-terminal biotin); assay: ELISA, biotinylated peptide on streptavidin plate
T5 construct: Synthetic 20-mer of human IL-33
T5 peptide: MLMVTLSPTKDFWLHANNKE
Experimental: as §1

[6] = target: T6, Pep10 (human, N-terminal biotin); assay: ELISA, biotinylated peptide on streptavidin plate
T6 construct: Synthetic 20-mer of human IL-33
T6 peptide: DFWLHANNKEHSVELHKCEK
Experimental: as §1

[7] = target: T7, Pep13 (human, N-terminal biotin); assay: ELISA, biotinylated peptide on streptavidin plate
T7 construct: Synthetic 20-mer of human IL-33
T7 peptide: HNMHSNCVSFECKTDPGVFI
Experimental: as §1

[8] = target: T8, Pep14 (human, N-terminal biotin); assay: ELISA, biotinylated peptide on streptavidin plate
T8 construct: Synthetic 20-mer of human IL-33
T8 peptide: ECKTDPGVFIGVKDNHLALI
Experimental: as §1

[9] = target: T9, Pep15 (human, N-terminal biotin); assay: ELISA, biotinylated peptide on streptavidin plate
T9 construct: Synthetic 20-mer of human IL-33
T9 peptide: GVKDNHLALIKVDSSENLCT
Experimental: as §1

[10] = target: T10, Pep16 (human, N-terminal biotin); assay: ELISA, biotinylated peptide on streptavidin plate
T10 construct: Synthetic 20-mer of human IL-33
T10 peptide: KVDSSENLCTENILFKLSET
Experimental: as §1

[11] = target: T11, IL-33 mutant protein N61A (human, UniProt O95760 112-270); assay: ELISA as Example 9; row N61A
T11 chain: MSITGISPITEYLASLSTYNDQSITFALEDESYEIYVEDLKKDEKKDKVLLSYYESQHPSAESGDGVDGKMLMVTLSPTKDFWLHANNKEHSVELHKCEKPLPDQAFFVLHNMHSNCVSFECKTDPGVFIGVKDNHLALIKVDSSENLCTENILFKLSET
Experimental: (§2) SA protein was diluted to 2 μg/mL to coat ELISA plate at 100 μL/well overnight at 4° C. The plate was washed with PBST (PBS containing 0.05% Tween20) for 3 times, and blocked with 2% BSA prepared in PBS at 200 μL/well, at room temperature for 2 h. After the plate was washed twice with PBST, IL-33-his-biotin protein was diluted to 1 μg/mL with 1% BSA prepared in PBST, and was added to ELISA plate at 100 μL/well. The plate was incubated at room temperature for 1 h, and each monoclonal antibody was diluted with 1% BSA prepared in PBST in a 3-fold gradient. The highest concentration of antibody was 10 μg/mL, and the antibody was diluted for 12 gradients. Each diluted monoclonal antibody was added to ELISA wells with 100 μL/well, and the plate was incubated at room temperature for 1 h. Each sample was added to duplicate wells in parallel. The plate was washed with PBST for 3 times, and HRP-anti human IgG Fc secondary antibody prepared with PBST was diluted at an appropriate ratio, and was added to ELISA wells at 100 μL/well. […] Each reaction solution was shaken uniformly and OD450 nm was read on a microplate reader. The data was analyzed and EC₅₀ was calculated.
(§3) Subsequently, according to the experimental method of Example 9, the affinity of the above mutant proteins to 874F7-Hu1 was determined, and IL-33 proteins (WT-1, WT-2, WT-3, and WT-4) without any mutation were set as controls.

[12] = target: T12, IL-33 mutant protein E55A (human, UniProt O95760 112-270); assay: ELISA as Example 9; row E55A against WT-2
T12 construct: Prokaryotic expression
T12 chain: T11 chain with E55A, A61N
Experimental: as §2, §3

[13] = target: T13, IL-33 mutant protein K45A (human, UniProt O95760 112-270); assay: ELISA as Example 9; row K45A against WT-1
T13 construct: Prokaryotic expression
T13 chain: T11 chain with K45A, A61N
Experimental: as §2, §3

[14] = target: T14, IL-33 mutant protein D65A (human, UniProt O95760 112-270); assay: ELISA by the method of Example 9 with the IL-33 mutant protein on the plate, 874F7-Hu1 in serial dilution, HRP anti-human IgG Fc, absorbance 450 nm
T14 construct: Prokaryotic expression
T14 chain: T11 chain with A61N, D65A

B1: 874F7 (antibody, V domains shown)
VH: QVQLKESGPGLVAPSHSLSITCNVSGFSLSKYGVHWIRQIPGRGLDWLGVLRAGGSTGYNSALMSRLSISKDSSKSQVFLKMNDLRTDDTAVYFCVRDHYYYSSYGGFVYWGQGTLVTVSA
VL: DIQMTQSPASQSASLGESVTITCLASQTIGAWLAWYRQQPGKSPQLLIYAATRLADGVPSRFSGSGSGTEFSFKINNLQAEDFVSYYCQQLDSSPYTFGGGTRLEM
notes: Murine hybridoma antibody purified on Protein G; also called murine antibody 874F7
B1: no binding (tested: 10 µg/mL) [1]; no binding (tested: 10 µg/mL) [2]; no binding (tested: 10 µg/mL) [3]. B1: no binding (tested: 10 µg/mL) [4]; no binding (tested: 10 µg/mL) [5]; no binding (tested: 10 µg/mL) [6]. B1: no binding (tested: 10 µg/mL) [7]; no binding (tested: 10 µg/mL) [8]; no binding (tested: 10 µg/mL) [9]. B1: no binding (tested: 10 µg/mL) [10].

B2: 874F7-Hu1 (antibody, human IgG4 S228P, kappa)
heavy: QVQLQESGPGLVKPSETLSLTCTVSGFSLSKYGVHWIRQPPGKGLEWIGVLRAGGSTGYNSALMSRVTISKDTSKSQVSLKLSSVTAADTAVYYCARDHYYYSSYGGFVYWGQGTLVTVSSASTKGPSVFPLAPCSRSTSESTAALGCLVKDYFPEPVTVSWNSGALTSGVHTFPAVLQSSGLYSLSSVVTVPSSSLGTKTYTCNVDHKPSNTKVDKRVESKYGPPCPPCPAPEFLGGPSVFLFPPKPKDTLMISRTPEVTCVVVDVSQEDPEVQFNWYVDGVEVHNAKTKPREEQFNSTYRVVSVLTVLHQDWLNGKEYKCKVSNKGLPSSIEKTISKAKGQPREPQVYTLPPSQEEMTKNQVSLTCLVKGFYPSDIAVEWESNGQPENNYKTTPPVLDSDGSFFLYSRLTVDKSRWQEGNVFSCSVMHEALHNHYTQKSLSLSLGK
light: DIQMTQSPSSVSASVGDRVTITCLASQTIGAWLAWYQQKPGKSPKLLIYAATRLADGVPSRFSGSGSGTDFTLTISSLQPEDFATYYCQQLDSSPYTFGQGTKVEIKRTVAAPSVFIFPPSDEQLKSGTASVVCLLNNFYPREAKVQWKVDNALQSGNSQESVTEQDSKDSTYSLSSTLTLSKADYEKHKVYACEVTHQGLSSPVTKSFNRGEC
notes: also called 874F7-Hul; humanized antibody 874F7-Hu1
B2 was tested, and the EC50 [11] was 0.15 nM, the Affinity decline ratio [12] was 2.5 fold and the Affinity decline ratio [13] was greater than 25 fold. The “EC50 (read off the curve)” value [14] was roughly 2 nM.
